Measurements taken from patent US20120316071A1 (published 2012).

Columns and labels:
[1] = biological target: T1, rHuman EGF R/Fc Chimera, CF (R&D Systems Cat#344-ER) (human, UniProt P00533 25-645); test: ECL Multispot (MSD), antigen spotted; Fab 50 (µM); blank 332; first of duplicates
T1 construct: Bought recombinant protein; Fc part of the bought chimera not given

[2] = biological target: T2, rHuman HGF R/c-MET/Fc Chimera, CF (R&D Systems Cat#358-MT/CF) (human, UniProt P08581 25-932); test: as above
T2 construct: Bought recombinant protein; also called HGF R/Fc; Fc part of the bought chimera not given
T2 sequence (P08581 25-932, change not shown): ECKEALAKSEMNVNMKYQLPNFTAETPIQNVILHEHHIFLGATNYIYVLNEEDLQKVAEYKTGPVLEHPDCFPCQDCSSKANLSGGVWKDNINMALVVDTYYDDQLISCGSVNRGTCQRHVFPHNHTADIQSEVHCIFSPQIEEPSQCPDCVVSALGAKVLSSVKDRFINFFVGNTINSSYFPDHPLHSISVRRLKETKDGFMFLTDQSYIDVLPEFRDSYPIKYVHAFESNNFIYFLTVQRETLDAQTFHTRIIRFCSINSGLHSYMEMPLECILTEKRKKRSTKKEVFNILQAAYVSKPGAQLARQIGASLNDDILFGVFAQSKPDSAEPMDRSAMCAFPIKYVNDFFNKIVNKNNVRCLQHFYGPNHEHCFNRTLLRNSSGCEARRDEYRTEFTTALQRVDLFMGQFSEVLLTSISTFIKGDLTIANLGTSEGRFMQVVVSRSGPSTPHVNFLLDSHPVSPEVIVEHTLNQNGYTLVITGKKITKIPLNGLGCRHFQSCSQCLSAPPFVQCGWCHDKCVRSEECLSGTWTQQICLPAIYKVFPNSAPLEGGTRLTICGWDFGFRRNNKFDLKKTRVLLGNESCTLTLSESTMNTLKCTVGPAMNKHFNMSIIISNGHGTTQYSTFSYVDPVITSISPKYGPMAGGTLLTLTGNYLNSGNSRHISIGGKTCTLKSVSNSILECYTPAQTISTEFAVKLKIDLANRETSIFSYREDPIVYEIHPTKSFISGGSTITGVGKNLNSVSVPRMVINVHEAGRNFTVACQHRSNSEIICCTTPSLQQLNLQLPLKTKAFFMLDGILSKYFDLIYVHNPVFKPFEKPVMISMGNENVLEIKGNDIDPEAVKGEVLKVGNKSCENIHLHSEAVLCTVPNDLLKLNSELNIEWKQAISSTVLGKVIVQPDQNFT

[3] = biological target: T3, Recombinant Human DLL4 (R&D Systems Cat#1506-D4/CF) (human, UniProt Q9NR61 27-529); test: as above
T3 construct: Bought recombinant protein; also called delta-like protein 4; rHuman DLL4

[4] = biological target: T4, rHuman ErbB2/Fc Chimera, CF (R&D Systems Cat#1129-ER) (human, UniProt P04626 23-652); test: as above
T4 construct: Bought recombinant protein; Fc part of the bought chimera not given

[5] = biological target: T5, rHuman IGF-1 sR, CF (R&D Systems Cat#391-GR) (human, UniProt P08069 31-932); test: as above
T5 construct: Bought recombinant soluble receptor; also called insulin-like growth factor-1 soluble receptor

[6] = biological target: T6, rHuman P-Cadherin/Fc Chimera, CF (R&D Systems Cat#861-PC) (human, UniProt P22223 108-654); test: as above
T6 construct: Bought recombinant protein; Fc part of the bought chimera not given

[7] = biological target: T1, rHuman EGF R/Fc Chimera, CF (R&D …); test: ECL Multispot (MSD), antigen spotted; Fab 5 (µM); blank 102; first of duplicates
[8] = biological target: T2, rHuman HGF R/c-MET/Fc Chimera, CF (R&D …); test: as above
[9] = biological target: T3, Recombinant Human DLL4 (R&D Systems …); test: as above
[10] = biological target: T4, rHuman ErbB2/Fc Chimera, CF (R&D …); test: as above
[11] = biological target: T5, rHuman IGF-1 sR, CF (R&D Systems …); test: as above
[12] = biological target: T6, rHuman P-Cadherin/Fc Chimera, CF (R&D …); test: as above
[13] = biological target: T1, rHuman EGF R/Fc Chimera, CF (R&D …); test: ECL Multispot (MSD), antigen spotted; Fab 500 (µM); blank 570; first of duplicates
[14] = biological target: T2, rHuman HGF R/c-MET/Fc Chimera, CF (R&D …); test: as above
[15] = biological target: T3, Recombinant Human DLL4 (R&D Systems …); test: as above
[16] = biological target: T4, rHuman ErbB2/Fc Chimera, CF (R&D …); test: as above
[17] = biological target: T5, rHuman IGF-1 sR, CF (R&D Systems …); test: as above
[18] = biological target: T6, rHuman P-Cadherin/Fc Chimera, CF (R&D …); test: as above
[19] = biological target: T1, rHuman EGF R/Fc Chimera, CF (R&D …); test: ECL Multispot (MSD), antigen spotted; Fab 0.50 (µM); blank 95; first of duplicates
[20] = biological target: T2, rHuman HGF R/c-MET/Fc Chimera, CF (R&D …); test: as above
[21] = biological target: T3, Recombinant Human DLL4 (R&D Systems …); test: as above
[22] = biological target: T4, rHuman ErbB2/Fc Chimera, CF (R&D …); test: as above
[23] = biological target: T5, rHuman IGF-1 sR, CF (R&D Systems …); test: as above
[24] = biological target: T6, rHuman P-Cadherin/Fc Chimera, CF (R&D …); test: as above

B1: Fab VH1-46_IGHD6-6*01_IGHJ1*01 S102A/S103P/S104F/H111F (APFF) & L6_IGKJ1*01 (Fab, V domains shown)
VH: QVQLVQSGAEVKKPGASVKVSCKASGYTFTSYYMHWVRQAPGQGLEWMGIINPSGGSTSYAQKFQGRVTMTRDTSTSTVYMELSSLRSEDTAVYYCAREEYAPFSAEYFQFWGQGTLVTVSS
VL: not shown
notes: Tested as a Fab made in E. coli: VH cloned in Plasmid A (CH1 constant region, His6 and Flag tags), VL in Plasmid C (kappa constant region); also called H:APFF & L:wt
- ECL signal [1]: 452
- ECL signal [2]: 368
- ECL signal [3]: 79400
- ECL signal [4]: 394
- ECL signal [5]: 283
- ECL signal [6]: 349
- ECL signal [7]: 229
- ECL signal [8]: 208
- ECL signal [9]: 76300
- ECL signal [10]: 225
- ECL signal [11]: 232
- ECL signal [12]: 290
- ECL signal [13]: 2410
- ECL signal [14]: 945
- ECL signal [15]: 26900
- ECL signal [16]: 908
- ECL signal [17]: 722
- ECL signal [18]: 1010
- ECL signal [19]: 137
- ECL signal [20]: 104
- ECL signal [21]: 8320
- ECL signal [22]: 130
- ECL signal [23]: 94
- ECL signal [24]: 106
